{"source": "paper doi:10.1101/2025.09.10.672744", "about": "“UDP-glucose Activation of a G-protein/Sucrose Synthase Signaling Supercomplex” (bioRxiv, 2025)", "key": {"His-SUS1": {"target": "T1, His-SUS1 (Arabidopsis, UniProt P49040 1-808)", "T1 construct": "Gateway pDEST17 adds linker residues between the His tag and the protein; also called SUCROSE SYNTHASE 1; source: E. coli ArcticExpress RP, purified (Ni-NTA, Superdex 200 SEC); not shown: 6xHis, N-terminal, kept", "T1 sequence (P49040 whole entry)": "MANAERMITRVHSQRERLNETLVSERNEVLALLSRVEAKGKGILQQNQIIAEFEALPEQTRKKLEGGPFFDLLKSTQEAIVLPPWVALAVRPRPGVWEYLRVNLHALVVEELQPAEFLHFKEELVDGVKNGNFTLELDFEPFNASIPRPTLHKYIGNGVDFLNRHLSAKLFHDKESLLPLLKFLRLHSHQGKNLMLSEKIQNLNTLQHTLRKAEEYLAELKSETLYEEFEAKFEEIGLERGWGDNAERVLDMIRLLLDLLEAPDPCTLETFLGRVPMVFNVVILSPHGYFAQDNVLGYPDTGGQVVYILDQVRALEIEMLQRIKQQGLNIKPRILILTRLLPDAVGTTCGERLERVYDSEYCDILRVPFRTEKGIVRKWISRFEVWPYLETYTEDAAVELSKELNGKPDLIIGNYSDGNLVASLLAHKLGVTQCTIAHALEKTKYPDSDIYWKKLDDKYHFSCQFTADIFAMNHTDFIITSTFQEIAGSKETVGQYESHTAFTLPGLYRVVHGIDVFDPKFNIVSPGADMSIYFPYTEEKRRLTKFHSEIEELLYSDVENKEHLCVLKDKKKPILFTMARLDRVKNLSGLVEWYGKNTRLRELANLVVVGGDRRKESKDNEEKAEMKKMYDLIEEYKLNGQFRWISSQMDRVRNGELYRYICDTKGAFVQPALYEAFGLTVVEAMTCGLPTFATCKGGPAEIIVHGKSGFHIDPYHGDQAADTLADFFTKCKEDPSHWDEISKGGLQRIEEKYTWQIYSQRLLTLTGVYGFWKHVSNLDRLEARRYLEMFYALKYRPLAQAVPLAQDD", "assay": "MST; sfGFP-RGS1(ΔC-tail) as the fluorescent target, His-SUS1 or His-SUS4 as ligands; NanoTemper Monolith NT.115", "conditions": "both partners purified"}, "His-SUS4": {"target": "T2, His-SUS4 (Arabidopsis, UniProt Q9LXL5 1-808)", "T2 construct": "Gateway pDEST17 adds linker residues between the His tag and the protein; also called SUCROSE SYNTHASE 4; source: E. coli ArcticExpress RP, purified (Ni-NTA, Superdex 200 SEC); not shown: 6xHis, N-terminal, kept", "T2 sequence (Q9LXL5 whole entry)": "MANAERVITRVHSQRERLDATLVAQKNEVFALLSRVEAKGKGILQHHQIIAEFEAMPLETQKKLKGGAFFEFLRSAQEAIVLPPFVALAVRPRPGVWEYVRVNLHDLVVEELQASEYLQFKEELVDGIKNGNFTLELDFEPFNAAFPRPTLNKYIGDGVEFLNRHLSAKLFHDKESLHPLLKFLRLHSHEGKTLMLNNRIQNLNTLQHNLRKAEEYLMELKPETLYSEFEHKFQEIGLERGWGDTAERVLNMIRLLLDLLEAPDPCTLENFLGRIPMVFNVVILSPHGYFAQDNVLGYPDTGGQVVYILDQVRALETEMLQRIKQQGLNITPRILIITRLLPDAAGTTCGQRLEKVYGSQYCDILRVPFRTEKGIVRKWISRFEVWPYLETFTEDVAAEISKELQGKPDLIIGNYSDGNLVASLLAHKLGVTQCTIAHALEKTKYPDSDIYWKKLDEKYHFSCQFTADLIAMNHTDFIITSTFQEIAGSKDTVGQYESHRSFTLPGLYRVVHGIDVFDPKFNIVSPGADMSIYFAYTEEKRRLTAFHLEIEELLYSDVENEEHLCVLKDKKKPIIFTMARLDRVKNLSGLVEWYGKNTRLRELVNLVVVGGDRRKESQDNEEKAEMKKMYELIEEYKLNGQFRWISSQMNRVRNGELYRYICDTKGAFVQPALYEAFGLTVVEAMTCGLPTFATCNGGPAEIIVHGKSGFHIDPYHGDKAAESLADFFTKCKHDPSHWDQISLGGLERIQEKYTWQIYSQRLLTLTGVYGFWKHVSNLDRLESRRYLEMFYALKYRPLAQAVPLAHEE", "assay": "MST; sfGFP-RGS1(ΔC-tail) as the fluorescent target, His-SUS1 or His-SUS4 as ligands; NanoTemper Monolith NT.115", "conditions": "both partners purified"}}}
{"binder": "HA–Flag–10xHis–sfGFP–TEV–Optimized–RGS1(ΔC-tail) (domain or fragment) MASGCALHGGCPSDYVAVAISVICFFVLLSRSVLPCLIHKAPRTNSSSFWIPVIQVISSFNLLFSIMMSVNLLRFRTKHWWRYCYLWAVWIEGPLGFGLLMSCRITQAFQLYFIFVKKRLPPVKSYIFLPLVLLPWIFGAAIIHATKPLNDKCHMGLQWTFPVAGLHALYVLALIAFTRAVRHVEFRFDELRDLWKGILVSATSIVIWVTAFVLNEIHEEISWLQVASRFVLLVTGGILVVVFFSISSNQPLLSQISLKKRQNFEFQRMGQALGIPDSGLLFRKEEFRPVDPNEPLDKLLLNKRFRHSFMEFADSCYAGETLHFFEEVYEHGKIPEDDSIRRIYMARHIMEKFIVAGAEMELNLSHKTRQEILTTQDLTHTDLFKNALNEVMQLIKMNLVRDYWSSIYFIKFKEEESCHEAMHKEGY", "values": [{"measurement": "Kd", "setting": "His-SUS1", "result": "161 ± 9", "unit": "nM"}, {"measurement": "Kd", "setting": "His-SUS4", "result": "106 ± 3", "unit": "nM"}]}
